The target of the first test is Plasmodium falciparum Hsp70-x (full length) (Plasmodium falciparum). The test can be described thus: SPR; PfHsp70-x or PfHsp70-xT immobilised on ProteOn GLC chips as ligands; peptides as analytes at 1.25-20 nM, 50 uL/min; 25 °C; PBS-Tween; with 2 mM ADP.
Broadly, the koff is a measure of how fast the partners let go of each other. Lower therefore signals slow dissociation. For ALLLMYRR [peptide ALLLMYRR], the koff was found to be 0.00282 s⁻¹.
Broadly, the kon is the second-order rate constant of association. The low end stands for slow association, the high end for fast association. Turning to NRLLTG [peptide NRLLTG], the koff came out at 1.01e-05 s⁻¹ and the kon was 1.62 M⁻¹ s⁻¹.
The matching figures for ANNNMYRR [peptide ANNNMYRR]: 0.00386 s⁻¹ and 1.74e+06 M⁻¹ s⁻¹.
The corresponding values for NRNNTG [peptide NRNNTG] are 1.03e-07 s⁻¹ and 2.55 M⁻¹ s⁻¹.

The target of a further test is PfHsp70-x C-terminal truncated version with a missing EEVN motif (Plasmodium falciparum). The test is described as above.
ALLLMYRR [peptide ALLLMYRR] yielded a koff of 1.04e-05 s⁻¹.
NRLLTG [peptide NRLLTG]: the dissociation rate constant (koff) is 1e-05 s⁻¹ and the kon is 6 M⁻¹ s⁻¹.
With ANNNMYRR [peptide ANNNMYRR], the off-rate (koff) was 1.04e-05 s⁻¹.
NRNNTG [peptide NRNNTG]: the koff was 1.01e-08 s⁻¹ and the on-rate constant (kon) worked out at 5.96 M⁻¹ s⁻¹.

The next test has as its target Plasmodium falciparum Hsp70-x (full length) (Plasmodium falciparum). The test is described as follows: SPR; PfHsp70-x or PfHsp70-xT immobilised on ProteOn GLC chips as ligands; peptides as analytes at 1.25-20 nM, 50 uL/min; 25 °C; PBS-Tween; no nucleotide.
Turning to ALLLMYRR [peptide ALLLMYRR], the koff worked out at 1.28e-06 s⁻¹.
In turn, NRLLTG [peptide NRLLTG] gave a koff of 9.97e-06 s⁻¹ and an on-rate constant (kon) of 3.86 M⁻¹ s⁻¹.
The molecule ANNNMYRR [peptide ANNNMYRR] gave an off-rate constant (koff) of 0.000732 s⁻¹ and a kon of 331000 M⁻¹ s⁻¹.
The matching figures for NRNNTG [peptide NRNNTG]: 9.49e-07 s⁻¹ and 2.43 M⁻¹ s⁻¹.

The target in another test is PfHsp70-x C-terminal truncated version with a missing EEVN motif (Plasmodium falciparum). Described as above.
ALLLMYRR [peptide ALLLMYRR] came in with a koff of 1.04e-05 s⁻¹.
On to NRLLTG [peptide NRLLTG], for which the koff is 8.67e-06 s⁻¹ and the kon came out at 3.15 M⁻¹ s⁻¹.
For ANNNMYRR [peptide ANNNMYRR], the dissociation rate constant (koff) is 1.04e-05 s⁻¹.
NRNNTG [peptide NRNNTG]: the off-rate (koff) was 2.79e-08 s⁻¹ and the on-rate (kon) came to 3.52 M⁻¹ s⁻¹.

For a further test, the target named is PfHsp70‐x C‐terminal truncated version with a missing EEVN motif (Plasmodium falciparum). The test can be described thus: SPR; PfHsp70‐x or PfHsp70‐xT immobilised on ProteOn GLC chips, peptides as analytes at 1.25-20 nM, 25°C, PBS‐Tween pH 7.4, with 2 mM ATP.
Broadly, the Kd is the equilibrium constant for the complex coming apart. The low end stands for higher affinity, the high end for lower affinity. On to NRLLTG [peptide NRLLTG], for which the Kd worked out at 1800 nM.
The same measure, in the same setting: the same measure for NRNNTG [peptide NRNNTG]: 107 nM.

A further test has as its target Plasmodium falciparum Hsp70‐x (full length) (Plasmodium falciparum). The description is as above.
Molecule ALLLMYRR [peptide ALLLMYRR] had a dissociation constant (Kd) of 60600 nM.
Molecule NRLLTG [peptide NRLLTG] gave a dissociation constant Kd of 1700 nM.
For ANNNMYRR [peptide ANNNMYRR], the Kd is 783 nM.
Still for that read-out and setting: the same measure for NRNNTG [peptide NRNNTG]: 137 nM.

Another test concerns the target Plasmodium falciparum Hsp70-x (full length) (Plasmodium falciparum). The test is described as follows: SPR; PfHsp70-x or PfHsp70-xT immobilised on ProteOn GLC chips as ligands; peptides as analytes at 1.25-20 nM, 50 uL/min; 25 °C; PBS-Tween; with 2 mM ATP.
In turn, ALLLMYRR [peptide ALLLMYRR] showed a koff of 1.6e-06 s⁻¹.
Consider NRLLTG [peptide NRLLTG], for which the dissociation rate constant (koff) is 1.01e-05 s⁻¹ and the kon was 1.21 M⁻¹ s⁻¹.
The matching figures for ANNNMYRR [peptide ANNNMYRR]: 0.00567 s⁻¹ and 7240 M⁻¹ s⁻¹.
As for NRNNTG [peptide NRNNTG], the koff was 1.01e-06 s⁻¹ and the on-rate constant (kon) was 7.33 M⁻¹ s⁻¹.

The target in a further test is PfHsp70-x C-terminal truncated version with a missing EEVN motif (Plasmodium falciparum). The test is described as above.
NRLLTG [peptide NRLLTG] yielded a koff of 0.000161 s⁻¹ and a kon of 31.8 M⁻¹ s⁻¹.
NRNNTG [peptide NRNNTG] showed a koff of 1.01e-05 s⁻¹ and a kon of 9.37 M⁻¹ s⁻¹.

A further test concerns the target PfHsp70‐x C‐terminal truncated version with a missing EEVN motif (Plasmodium falciparum). The test can be described thus: SPR; PfHsp70‐x or PfHsp70‐xT immobilised on ProteOn GLC chips, peptides as analytes at 1.25-20 nM, 25°C, PBS‐Tween pH 7.4, with 2 mM ADP. A general note: Surface plasmon resonance follows binding to a sensor surface in real time, without labels.
For ALLLMYRR [peptide ALLLMYRR], the dissociation constant Kd stood at 313000 nM.
Still for that read-out and setting: the same measure for NRLLTG [peptide NRLLTG]: 170 nM; for ANNNMYRR [peptide ANNNMYRR]: 443000 nM; for NRNNTG [peptide NRNNTG]: 1.69 nM.

Another test deals with Plasmodium falciparum Hsp70‐x (full length) (Plasmodium falciparum). The description is as above.
As to ALLLMYRR [peptide ALLLMYRR], the Kd amounted to 2820 nM.
On the same count and under the same terms, next, NRLLTG [peptide NRLLTG]: 620 nM; ANNNMYRR [peptide ANNNMYRR]: 2.21 nM.
For NRNNTG [peptide NRNNTG], the Kd was 4.31 nM.

The next test deals with PfHsp70‐x C‐terminal truncated version with a missing EEVN motif (Plasmodium falciparum). The test is described as follows: SPR; PfHsp70‐x or PfHsp70‐xT immobilised on ProteOn GLC chips, peptides as analytes at 1.25-20 nM, 25°C, PBS‐Tween pH 7.4, no nucleotide.
With ALLLMYRR [peptide ALLLMYRR], the Kd came to 542000 nM.
NRLLTG [peptide NRLLTG] had a dissociation constant (Kd) of 280 nM.
Still for that read-out and setting: next, ANNNMYRR [peptide ANNNMYRR]: 626000 nM; NRNNTG [peptide NRNNTG]: 7.92 nM.

A further test has as its target Plasmodium falciparum Hsp70‐x (full length) (Plasmodium falciparum). The description is as above.
Consider ALLLMYRR [peptide ALLLMYRR], for which the dissociation constant (Kd) was 1470 nM.
Molecule NRLLTG [peptide NRLLTG] came in with an equilibrium dissociation constant (Kd) of 250 nM.
The same measure, in the same setting: next, ANNNMYRR [peptide ANNNMYRR]: 2.21 nM.
Same read-out and setting: the same measure for NRNNTG [peptide NRNNTG]: 6.91 nM.

Source of the values: PMC6282620, “Structural and biochemical characterization of Plasmodium falciparum Hsp70‐x reveals functional versatility of its C‐terminal EEVN motif” (Proteins, 2018).
